Assay results as given in US12329814B2, “Combination of a substance modulating tumor immune microenvironment and immunotherapy for the treatment of cancer” (Boostimmune, Inc., priority 2022, dated 2025).

T1: extracellular TCTP (Mus musculus, UniProt P63028)
T1 construct: stimulated with conditioned supernatant of SL4 cells containing antibody 55F3 or control IgG; endogenous in cells; host or cells: SL4 mouse colon carcinoma cells (conditioned supernatant), applied to mouse peritoneal exudate cells
T1 sequence (P63028 1-172): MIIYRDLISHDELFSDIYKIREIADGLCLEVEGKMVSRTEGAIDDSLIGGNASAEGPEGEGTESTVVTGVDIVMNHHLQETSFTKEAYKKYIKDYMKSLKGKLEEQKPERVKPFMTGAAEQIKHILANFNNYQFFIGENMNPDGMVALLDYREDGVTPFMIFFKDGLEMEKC

B1: 1-2-4: Human monoclonal anti-TCTP antibody from CAMOUSE; VH SEQ ID NO: 28, VL SEQ ID NO: 32; CDRs SEQ ID NO: 19-24 (antibody, V domains shown)
VH: MDWTWRILFLVAAATGAHSQVQLVQSGAEVKKPGASVKVSCKASGYTFFSYAMHWVRQAPGQRLEWMGWINAGNGNTKYSQKFQDRVTITRDTSATTAYMELSSLRSEDTAVYYCASWVFDYWGQGTPVTVSS
VL: MRLLAQLLGLLMLWVPGSSGDIVMTQTPLSSLVTLGQPASISCRSSQSLVHRDGNTYLSWLQQRPGQPPRLLIYKISNRFFGVPDRFSGSGAGTDFTLKISRVEAEDVGVYYCMQATQFPHTFGQGTKLEIK
modifications: Variable region of antibody
B2: 55F3: Mouse monoclonal anti-TCTP antibody; VH SEQ ID NO: 25, VL SEQ ID NO: 29; CDRs SEQ ID NO: 1-6 (antibody, listed as Mus musculus)
VH: MRVLILLWLFTAFPGILSDVQLQESGPGLVKPSQSLSLTCTATGYSIASDYAWNWIRQFPGNKLEWMGYINYSGSTGYNPSLKSRISITRDTSKNQFFLQLNSVTTEDTATYYCARFEAGYWGQGTTLTVSSAKTTPPSVYPLAPGSAAQTNSMVTLGCLVKGYFPEPVT
VL: MDMRTPAQFLGILLLWFPGIKCDIKMTQSPSSMSASLGERVTITCKASQDINRYLSWFQQKPGKSPKTLIYRANRLVDGVPSRFSGSGSGQDYSLTISSLEYGDMGIYYCLQYNEFPLTFGAGTKLELKRADAAPTVSIFPPSSEQLTSGGASVVCFLN

Assays:
[1] = tested on: SL4 TCTP KO+hTCTP tumor cells; assay: TCTP KI SL4 (TCTP KO+hTCTP) subcutaneous tumor in C57BL/6 mice treated with anti-TCTP antibodies; type: in vivo; conditions: 100 μg intraperitoneally on days 1, 4, 8, 11, vs PBS; FIG. 7
Protocol: HEK293Ta cells (3×10^6 cells) were transfected with pCSII-EF-MCS-IRES2-Venus-hTCTP lentiviral expression vector and its helper vectors (pMDLg/p.RRE and pCMV-VSV-G-RSV-Rev). After 48 hours of the transfection, culture supernatants were collected and filtered (0.45 μm; Millipore). TCTP KO SL4 cells from Example 1 (1×10^6 cells) were infected using the supernatant. After infection, GFP-positive human TCTP-expressing TCTP KO SL4 cells (hereafter TCTP KI SL4 cells) were sorted using FACSMelody cell sorter. TCTP KI SL4 cells (2×10^5 cells/100 μL PBS), TCTP KO SL4 cells (2×10^5 cells/100 μL PBS), or parental SL4 cells (2×10^5 cells/100 μL PBS) were inoculated into C57BL/6 mice. After cell inoculation, tumor volumes were measured over time.
TCTP KI SL4 cells (TCTP KO+hTCTP; 5×10^5 cells in 100 μL PBS) from example 3 were subcutaneously inoculated into C57BL/6 mice (Day 0). Anti-TCTP (100 μg in 100 μL PBS) antibodies were administered intraperitoneally into the mice on days 1, 4, 8, and 11. As a control, 100 μL of PBS was administered. Tumor size was measured on days 3, 6, 9, and 11. As a result, the proliferation speed of SL4 TCTP KO+hTCTP tumor cells was decreased by administration of 55F3 or 1-2-4 (FIG. 7).

B16F10 cells = assay: B16F10 tumor treated with anti-TCTP antibody in combination with anti-PD-1 antibody; type: in vivo, C57BL/6 mice; conditions: anti-TCTP 100 μg i.p. days 1, 4, 8, 11, 15, 18, 22 plus anti-PD-1 (BioXCell) 100 μg i.v. day 10, compared with checkpoint antibody alone, FIGS. 9A and 9B
Protocol: The influence of the combination of anti-TCTP antibodies with an anti-PD-1 antibody on tumor suppression was also studied. B16F10 (1×10^5 cells in 50 μL PBS) cells were subcutaneously inoculated into C57BL/6 mice (Day 1). An anti-PD-1 antibody (BioXCell; 100 μg in 100 μL PBS) was administered intravenously ten days after the inoculation, and anti-TCTP antibodies 55F3 and 1-2-4 (each 100 μg in 100 μL PBS) were administered intraperitoneally in the mice on days 1, 4, 8, 11, 15, 18, and 22. As a result, the effect of suppressing tumor proliferation is improved by the combined administration of an anti-TCTP antibody and a PD-1 or CTLA-4 antagonist antibody, compared with the case of single administration of a PD-1 or CTLA-4 antagonist antibody alone (FIGS. 9A and 9B).

B16F10 tumors = assay: Flow cytometry of tumor-infiltrating immune cells, B16F10 tumors, anti-TCTP and anti-PD-1 antibodies; type: in vivo, C57BL/6 mice; conditions: B16F10, 12 days; 55F3 200 μg i.p. every 2 days and/or anti-PD-1 RMP1-14 10 mg/kg i.p. days 0, 3, 7, 10, 14; FIG. 11C
Protocol: (§1) Effect of the combination of anti-TCTP antibody and anti-PD-1 antibody on T cells and NK cells in the TIME was also studied. Tumor-infiltrating immune cells were collected from B16F10 and MC38 tumors treated with anti-TCTP antibody and/or anti-PD-1 antibody and were then analyzed by flow cytometry. B16F10 cells (5×10^5 cells) or MC38 cells (3×10^5 cells) were transplanted subcutaneously into C57BL/6 mice. Anti-PD-1 antibody RMP1-14 (BioXCell; 10 mg/kg) was administered intraperitoneally on days 0, 3, 7, 10, 14 after the inoculation, and anti-TCTP antibody 55F3 (200 μg in 200 μL PBS) was administered intraperitoneally in the mice every 2 days after the inoculation. After 15 days (MC38) or 12 days (B16F10) of transplantation, single cell suspensions were prepared from tumors and subjected to flow cytometry analysis.

SL4 cells = assay: SL4 tumor treated with anti-TCTP antibody in combination with anti-PD-1 antibody; type: in vivo, C57BL/6 mice; conditions: 55F3 i.p. every day from Day 1 plus anti-PD-1 monoclonal antibody (BioLegend) day 10, compared with PD-1 antagonist antibody alone, FIG. 10
Protocol: This synergistic effect was also confirmed in the experiment using SL4 cells. SL4 cells were transplanted into C57BL/6 mice via subcutaneous injection, and thereafter, antibody 55F3 was intraperitoneally […] into the mice every day, starting from Day 1 after the transplantation. Ten days after the transplantation, an anti-PD-1 monoclonal antibody (BioLegend) was administered to the mice, and the tumor volume was then measured. As a result, it was confirmed that the effect of suppressing tumor proliferation is improved by the combined administration of an anti-TCTP antibody and a PD-1 antagonist antibody, compared with the case of single administration of a PD-1 antagonist antibody alone (FIG. 10).

SL4 tumor cells = assay: SL4 subcutaneous tumor in C57BL/6 mice treated with anti-TCTP antibody; type: in vivo; conditions: 200 μg/mouse intraperitoneally every other day from Day 1, vs control IgG
Protocol: (§2) Peritoneal exudate cells (PECs) (2×10^5 cells) were stimulated with conditioned supernatant of SL4 cells containing antibody 55F3 or control IgG, and after 2 hours of stimulation, Cxcl1 mRNA levels were determined by RT-qPCR. As a result of blockade of extracellular TCTP with antibody 55F3, the expression of Cxcl1 mRNA was suppressed (FIG. 6A). Subsequently, SL4 cells were transplanted into C57BL/6 mice via subcutaneous injection, and 55F3 or control IgG (200 μg/mouse) was then intraperitoneally administered to the mice every other day, starting from Day 1 after the transplantation, and the volume of the tumor was measured. As a result, the proliferation speed of SL4 tumor cells was decreased by administration of 55F3 (FIG. 6B), and the amount of PMN-MDSCs in the TIME was decreased (FIG. 6C).

extracellular TCTP = target: T1, extracellular TCTP; assay: Cxcl1 mRNA in peritoneal exudate cells stimulated with SL4 conditioned supernatant (RT-qPCR); type: cell-based; conditions: PECs stimulated 2 hours with conditioned supernatant of SL4 cells containing antibody, vs control IgG; FIG. 6A
Protocol: as §2

MC38 tumors = assay: Flow cytometry of tumor-infiltrating immune cells, MC38 tumors, anti-TCTP and anti-PD-1 antibodies; type: in vivo, C57BL/6 mice; conditions: MC38, 15 days; 55F3 200 μg i.p. every 2 days and/or anti-PD-1 RMP1-14 10 mg/kg i.p. days 0, 3, 7, 10, 14; FIG. 11C
Protocol: as §1

| Molecule | proliferation speed of SL4 TCTP KO+hTCTP tumor cells (tumor size) [1] | effect of suppressing tumor proliferation, combined administration with anti-PD-1 antibody (B16F10 cells) | CD8+ cells in tumor (abundance ratio) (B16F10 tumors) | effect of suppressing tumor proliferation, combined administration with anti-PD-1 antibody (SL4 cells) | proliferation speed of SL4 tumor cells (tumor volume) (SL4 tumor cells; FIG. 6B) | amount of PMN-MDSCs in the TIME (SL4 tumor cells; SL4 tumor, FIG. 6C) | expression of Cxcl1 mRNA (extracellular TCTP) | CD8+ cells in tumor (abundance ratio) (MC38 tumors) |
| --- | --- | --- | --- | --- | --- | --- | --- | --- |
| B1 | decreased | improved |  |  |  |  |  |  |
| B2 | decreased | improved | increased | improved | decreased | decreased | suppressed | increased |
